# B1: ePGT121 (antibody, V domains shown)
# VH: QMQLQESGPGLVKPGETLSLTCSVSGASISSSYWSWLRETPGKGLEWIGYTHHSGDTNYAPSLKSRVHLGLHPSKNQVSLSLTSVTAADTAVYYCARTLHGRRIYGVVAFNEYYTYFYWPTWGKGTQVTVSS
# VL: SDISVAPGETVRITCGGESIGSRAVQWYQHRPGQAPRLIIYNNQDRPPGIPERFSGSPDIDFGTTATLTISNVEAGDEATYYCHIWDSRRPTNWELGPGTTLTVLG
# B2: N49P7 (antibody, V domains shown)
# VH: ADLVQSGAVVKKPGDSVRISCEAQGYRFPDYIIHWIRRAPGQGPEWMGWMNPMGGQVNIPWKFQGRVSMTRDTSIETAFLDLRGLKSDDTAVYYCVRDRSNGSGKRFESSNWFLDLWGRGTAVTIQS
# VL: ALTQPRSVSASPGQSVTISCTGTHNLVSWCQHQPGRAPKLLIYDFNKRPSGVPDRFSGSGSGGTASLTITGLQDDDDAEYFCWAYEAFGGGTKLTVL
# B3: BiS13 (bispecific antibody)
# heavy: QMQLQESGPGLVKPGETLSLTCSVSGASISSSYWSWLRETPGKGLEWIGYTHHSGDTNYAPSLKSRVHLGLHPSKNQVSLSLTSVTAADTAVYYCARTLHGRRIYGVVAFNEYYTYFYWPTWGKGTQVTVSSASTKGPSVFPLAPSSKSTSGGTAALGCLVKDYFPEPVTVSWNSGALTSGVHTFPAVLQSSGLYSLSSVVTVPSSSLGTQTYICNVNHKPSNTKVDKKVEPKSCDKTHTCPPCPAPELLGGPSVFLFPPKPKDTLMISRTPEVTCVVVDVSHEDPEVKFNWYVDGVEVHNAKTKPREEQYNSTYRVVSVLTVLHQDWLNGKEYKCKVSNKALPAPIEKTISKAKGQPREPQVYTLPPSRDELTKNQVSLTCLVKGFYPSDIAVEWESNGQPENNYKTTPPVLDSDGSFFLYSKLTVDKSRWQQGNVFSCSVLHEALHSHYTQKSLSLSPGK
# light: ALTQPRSVSASPGQSVTISCTGTHNLVSWCQHQPGRAPKLLIYDFNKRPSGVPDRFSGSGSGGTASLTITGLQDDDDAEYFCWAYEAFGGGTKLTVLGQGGGGSGGGGSGGGGSADLVQSGAVVKKPGDSVRISCEAQGYRFPDYIIHWIRRAPGQGPEWMGWMNPMGGQVNIPWKFQGRVSMTRDTSIETAFLDLRGLKSDDTAVYYCVRDRSNGSGKRFESSNWFLDLWGRGTAVTIQSGGGGSGGGGSGGGGSGGGGSGGGGSDISVAPGETVRITCGGESIGSRAVQWYQHRPGQAPRLIIYNNQDRPPGIPERFSGSPDIDFGTTATLTISNVEAGDEATYYCHIWDSRRPTNWELGPGTTLTVLGQPKAAPSVTLFPPSSEELQANKATLVCLISDFYPGAVTVAWKADSSPVKAGVETTTPSKQSNNKYAASSYLSLTPEQWKSHKSYSCQVTHEGSTVEKTVAPTECS
# Columns and labels:
# Assay in all cases: cell-based or functional assay
# [1] = target: HIV-1 Env of pseudovirus CNE8 (clade AE) (HIV-1)
# [2] = target: HIV-1 Env of pseudovirus MS208.A1 (clade A) (HIV-1)
# [3] = target: HIV-1 Env of pseudovirus BJOX010000.06.2 (clade AE (T/F)) (HIV-1)
# [4] = target: HIV-1 Env of pseudovirus CAP45.G3 (clade C) (HIV-1)
# [5] = target: HIV-1 Env of pseudovirus T257-31 (clade AG) (HIV-1)
# [6] = target: HIV-1 Env of pseudovirus 231965.c01 (clade D) (HIV-1)
# [7] = target: HIV-1 Env of pseudovirus X1632.S2.B10 (clade G) (HIV-1)
# [8] = target: HIV-1 Env of pseudovirus QH0692.42-N332A (clade B) (HIV-1)
# [9] = target: HIV-1 Env of pseudovirus BJOX009000.02.4 (clade AE) (HIV-1)
# [10] = target: HIV-1 Env of pseudovirus Q259.17 (clade A) (HIV-1)
# [11] = target: HIV-1 Env of pseudovirus 6545.V4.C1 (clade AC) (HIV-1)
# [12] = target: HIV-1 Env of pseudovirus TRO.11-N332A (clade B) (HIV-1)
# [13] = target: HIV-1 Env of pseudovirus 3016.v5.c45 (clade D) (HIV-1)
Binder,Pseudovirus neutralization IC80 (TZM-bl luciferase) [1],Pseudovirus neutralization IC80 (TZM-bl luciferase) [2],Pseudovirus neutralization IC80 (TZM-bl luciferase) [3],Pseudovirus neutralization IC80 (TZM-bl luciferase) [4],Pseudovirus neutralization IC80 (TZM-bl luciferase) [5],Pseudovirus neutralization IC80 (TZM-bl luciferase) [6],Pseudovirus neutralization IC80 (TZM-bl luciferase) [7],Pseudovirus neutralization IC80 (TZM-bl luciferase) [8],Pseudovirus neutralization IC80 (TZM-bl luciferase) [9],Pseudovirus neutralization IC80 (TZM-bl luciferase) [10],Pseudovirus neutralization IC80 (TZM-bl luciferase) [11],Pseudovirus neutralization IC80 (TZM-bl luciferase) [12],Pseudovirus neutralization IC80 (TZM-bl luciferase) [13]
B1,> 50 µg/mL,> 50 µg/mL,> 50 µg/mL,5.78 µg/mL,> 50 µg/mL,> 50 µg/mL,> 50 µg/mL,> 50 µg/mL,0.0428 µg/mL,> 50 µg/mL,> 50 µg/mL,1.35 µg/mL,> 50 µg/mL
B2,0.175 µg/mL,0.194 µg/mL,0.453 µg/mL,0.112 µg/mL,0.577 µg/mL,0.196 µg/mL,0.27 µg/mL,0.35 µg/mL,0.0999 µg/mL,0.163 µg/mL,1.76 µg/mL,0.0622 µg/mL,0.516 µg/mL
B3,0.137 µg/mL,0.0998 µg/mL,0.172 µg/mL,0.0021 µg/mL,,0.0157 µg/mL,0.06 µg/mL,0.0311 µg/mL,0.0096 µg/mL,0.0114 µg/mL,< 0.0001 µg/mL,0.0054 µg/mL,0.0156 µg/mL
